Values of other authors, collected in paper PMC7081292.
Read-outs that look alike come from different tables or passages of the source.

How the values were obtained:
His57 [1] = target: T1, His57 (UniProt position 57, VVTAAHCGVTT); conditions: zwitterionic tetrahedral (hemiacetal) adduct with an aldehyde inhibitor
His57 [2] = target: T1, His57; experiment: NMR; conditions: zwitterionic tetrahedral adduct with a peptide-derived glyoxal inhibitor

## Chymotrypsin (not stated (presumably Bos taurus))
His57 [1]
  pKa: ∼ 8
His57 [2]
  pKa: >11
